Data as given in patent US20250320281A1.

Assays:
Assay in all cases: cell-based or functional assay
[1] = biological target: HIV-1 Env of pseudovirus MGRM-AG-009 (subtype AG) (HIV-1)
[2] = biological target: HIV-1 Env of isolate MG RM-D-024 (HIV-1)
[3] = biological target: HIV-1 Env of isolate MGRM-F1-012 (HIV-1)
[4] = biological target: HIV-1 Env of isolate MGRM-F1-020 (HIV-1)
[5] = biological target: HIV-1 Env of isolate MGRM-F1-013 (HIV-1)
[6] = biological target: HIV-1 Env of isolate MGRM-F1-004 (HIV-1)
[7] = biological target: HIV-1 Env of pseudovirus MGRM-AG-005 (subtype AG) (HIV-1)
[8] = biological target: HIV-1 Env of isolate MG RM-D-028 (HIV-1)
[9] = biological target: HIV-1 Env of isolate MGRM-F1-006 (HIV-1)
[10] = biological target: HIV-1 Env of isolate MG RM-D-012 (HIV-1)
[11] = biological target: HIV-1 Env of isolate MG RM-D-016 (HIV-1)
[12] = biological target: HIV-1 Env of isolate MG RM-D-018 (HIV-1)
[13] = biological target: HIV-1 Env of pseudovirus MGRM-AG-013 (subtype AG) (HIV-1)
[14] = biological target: HIV-1 Env of isolate MGRM-F1-018 (HIV-1)
[15] = biological target: HIV-1 Env of isolate MG RM-D-019 (HIV-1)
[16] = biological target: HIV-1 Env of isolate MGRM-F1-015 (HIV-1)
[17] = biological target: HIV-1 Env of isolate MGRM-F1-010 (HIV-1)
[18] = biological target: HIV-1 Env of isolate MG RM-D-013 (HIV-1)
[19] = biological target: HIV-1 Env of isolate MGRM-F1-021 (HIV-1)
[20] = biological target: HIV-1 Env of isolate MGRM-F1-017 (HIV-1)
[21] = biological target: HIV-1 Env of pseudovirus MGRM-AG-008 (subtype AG) (HIV-1)
[22] = biological target: HIV-1 Env of pseudovirus MGRM-AG-002 (subtype AG) (HIV-1)
[23] = biological target: HIV-1 Env of pseudovirus MGRM-AG-006 (subtype AG) (HIV-1)
[24] = biological target: HIV-1 Env of pseudovirus MGRM-AG-012 (subtype AG) (HIV-1)
[25] = biological target: HIV-1 Env of isolate MGRM-F1-023 (HIV-1)
[26] = biological target: HIV-1 Env of isolate MG RM-D-021 (HIV-1)
[27] = biological target: HIV-1 Env of isolate MGRM-F1-022 (HIV-1)
[28] = biological target: HIV-1 Env of isolate MGRM-F1-014 (HIV-1)
[29] = biological target: HIV-1 Env of isolate MGRM-F1-016 (HIV-1)
[30] = biological target: HIV-1 Env of pseudovirus MGRM-AG-003 (subtype AG) (HIV-1)
[31] = biological target: HIV-1 Env of isolate MG RM-D-026 (HIV-1)
[32] = biological target: HIV-1 Env of pseudovirus MGRM-AG-011 (subtype AG) (HIV-1)
[33] = biological target: HIV-1 Env of isolate MG RM-D-029 (HIV-1)
[34] = biological target: HIV-1 Env of isolate MG RM-D-022 (HIV-1)
[35] = biological target: HIV-1 Env of isolate MGRM-F1-008 (HIV-1)
[36] = biological target: HIV-1 Env of pseudovirus MGRM-AE-008 (subtype AE) (HIV-1)
[37] = biological target: HIV-1 Env of isolate MGRM-C-005 (HIV-1)
[38] = biological target: HIV-1 Env of pseudovirus MGRM-AG-001 (subtype AG) (HIV-1)
[39] = biological target: HIV-1 Env of pseudovirus MGRM-AE-007 (subtype AE) (HIV-1)
[40] = biological target: HIV-1 Env of isolate MG RM-D-011 (HIV-1)
[41] = biological target: HIV-1 Env of isolate MG RM-D-014 (HIV-1)
[42] = biological target: HIV-1 Env of isolate MG RM-D-020 (HIV-1)

Chain of PGT-143 (4980_N08) (antibody) (VH): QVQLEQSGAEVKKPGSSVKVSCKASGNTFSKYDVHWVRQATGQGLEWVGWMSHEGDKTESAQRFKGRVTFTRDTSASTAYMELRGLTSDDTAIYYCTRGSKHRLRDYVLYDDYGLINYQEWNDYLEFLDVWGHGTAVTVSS
Chain of PGT-143 (4980_N08) (antibody) (VL): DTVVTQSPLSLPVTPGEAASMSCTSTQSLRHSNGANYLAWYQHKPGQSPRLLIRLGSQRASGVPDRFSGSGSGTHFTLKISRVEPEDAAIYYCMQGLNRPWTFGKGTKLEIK
Chain of PGT-141 (4964_G22; 4993_K13) (antibody) (VH): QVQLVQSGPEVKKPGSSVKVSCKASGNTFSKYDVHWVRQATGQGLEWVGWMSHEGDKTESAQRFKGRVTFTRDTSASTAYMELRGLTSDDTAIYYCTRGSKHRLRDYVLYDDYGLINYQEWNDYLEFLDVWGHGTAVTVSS
Chain of PGT-141 (4964_G22; 4993_K13) (antibody) (VL): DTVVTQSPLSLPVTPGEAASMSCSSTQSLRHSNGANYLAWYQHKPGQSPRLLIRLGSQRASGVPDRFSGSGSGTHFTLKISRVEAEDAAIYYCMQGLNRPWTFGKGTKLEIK

## PGT-141 (4964_G22; 4993_K13) (antibody)
[1]
  IC50, pseudovirus neutralization: > 50 µg/mL
[2]
  IC50: > 50 µg/mL
[3]
  IC50: > 50 µg/mL
[4]
  IC50: 1.15 µg/mL
[5]
  IC50: 0.043 µg/mL
[6]
  IC50: 0.021 µg/mL
[7]
  IC50, pseudovirus neutralization: 0.497 µg/mL
[8]
  IC50: < 50 µg/mL
[9]
  IC50: 8.99 µg/mL
[10]
  IC50: > 50 µg/mL
[11]
  IC50: > 50 µg/mL
[12]
  IC50: > 50 µg/mL
[13]
  IC50, pseudovirus neutralization: > 50 µg/mL
[14]
  IC50: 0.785 µg/mL
[15]
  IC50: 1.66 µg/mL
[16]
  IC50: > 50 µg/mL
[17]
  IC50: > 50 µg/mL
[18]
  IC50: 0.179 µg/mL
[19]
  IC50: > 50 µg/mL
[20]
  IC50: 30.8 µg/mL
[21]
  IC50, pseudovirus neutralization: 19.2 µg/mL
[22]
  IC50, pseudovirus neutralization: 0.049 µg/mL
[23]
  IC50, pseudovirus neutralization: > 50 µg/mL
[24]
  IC50, pseudovirus neutralization: > 50 µg/mL
[25]
  IC50: 0.307 µg/mL
[26]
  IC50: > 50 µg/mL
[27]
  IC50: 0.114 µg/mL
[28]
  IC50: 0.001 µg/mL
[29]
  IC50: > 50 µg/mL
[30]
  IC50, pseudovirus neutralization: > 50 µg/mL
[31]
  IC50: 32.5 µg/mL
[32]
  IC50, pseudovirus neutralization: 0.118 µg/mL
[33]
  IC50: 0.057 µg/mL
[34]
  IC50: > 50 µg/mL
[35]
  IC50: 0.193 µg/mL
[36]
  IC50, pseudovirus neutralization: 0.101 µg/mL
[37]
  IC50, pseudovirus neutralization: 8.83 µg/mL
[38]
  IC50, pseudovirus neutralization: 18 µg/mL
[39]
  IC50, pseudovirus neutralization: 33.1 µg/mL
[40]
  IC50: > 50 µg/mL
[41]
  IC50: 0.01 µg/mL
[42]
  IC50: > 50 µg/mL

## PGT-143 (4980_N08) (antibody)
[1]
  IC50, pseudovirus neutralization: > 50 µg/mL
[2]
  IC50: > 50 µg/mL
[3]
  IC50: > 50 µg/mL
[4]
  IC50: 0.98 µg/mL
[5]
  IC50: 0.013 µg/mL
[6]
  IC50: 0.036 µg/mL
[7]
  IC50, pseudovirus neutralization: 1.11 µg/mL
[8]
  IC50: > 50 µg/mL
[9]
  IC50: 12.3 µg/mL
[10]
  IC50: > 50 µg/mL
[11]
  IC50: > 50 µg/mL
[12]
  IC50: > 50 µg/mL
[13]
  IC50, pseudovirus neutralization: > 50 µg/mL
[14]
  IC50: 0.701 µg/mL
[15]
  IC50: 0.277 µg/mL
[16]
  IC50: > 50 µg/mL
[17]
  IC50: > 50 µg/mL
[18]
  IC50: 0.386 µg/mL
[19]
  IC50: > 50 µg/mL
[20]
  IC50: 26.3 µg/mL
[21]
  IC50, pseudovirus neutralization: 34 µg/mL
[22]
  IC50, pseudovirus neutralization: 0.076 µg/mL
[23]
  IC50, pseudovirus neutralization: > 50 µg/mL
[24]
  IC50, pseudovirus neutralization: > 50 µg/mL
[25]
  IC50: 0.972 µg/mL
[26]
  IC50: > 50 µg/mL
[27]
  IC50: 0.082 µg/mL
[28]
  IC50: 0.001 µg/mL
[29]
  IC50: > 50 µg/mL
[30]
  IC50, pseudovirus neutralization: > 50 µg/mL
[31]
  IC50: 44.6 µg/mL
[32]
  IC50, pseudovirus neutralization: 0.156 µg/mL
[33]
  IC50: 0.2 µg/mL
[34]
  IC50: > 50 µg/mL
[35]
  IC50: 0.189 µg/mL
[36]
  IC50, pseudovirus neutralization: 0.135 µg/mL
[38]
  IC50, pseudovirus neutralization: 18.9 µg/mL
[39]
  IC50, pseudovirus neutralization: 13.6 µg/mL
[40]
  IC50: > 50 µg/mL
[41]
  IC50: 0.009 µg/mL
[42]
  IC50: > 50 µg/mL
